B1: ICAM-R domain 1 peptide, residues 32-38 (peptide)
peptide: EKIALET
notes: also called ICAM-R 32-38
B2: ICAM-R domain 3 peptide GDQML, residues 230-234 (peptide)
peptide: GDQML
notes: also called ICAM-R 230-234
B3: ICAM-1 domain 3 peptide GDQRL, residues 228-232 (peptide)
peptide: GDQRL
notes: also called ICAM-1 228-232
B4: ICAM-R domain 3 peptide, residues 271-276 (peptide)
peptide: GERREA
notes: also called ICAM-R 271-276
B5: ICAM-R domain 1 peptide NGSQI, residues 72-76 (peptide)
peptide: NGSQI
notes: also called ICAM-R 72-76
B6: ICAM-1/IgG chimera (Fc fusion, UniProt P05362 28-480, looked up, not shown: a dimerising Fc or GST)
chain: QTSVSPSKVILPRGGSVLVTCSTSCDQPKLLGIETPLPKKELLLPGNNRKVYELSNVQEDSQPMCYSNCPDGQSTAKTFLTVYWTPERVELAPLPSWQPVGKNLTLRCQVEGGAPRANLTVVLLRGEKELKREPAVGEPAEVTTTVLVRRDHHGANFSCRTELDLRPQGLELFENTSAPYQLQTFVLPATPPQLVSPRVLEVDTQGTVVCSLDGLFPVSEAQVHLALGDQRLNPTVTYGNDSFSAKASVSVTAEDEGTQRLTCAVILGNQSQETLQTVTIYSFPAPNVILTKPEVSEGTEVTVKCEAHPRAKVTLNGVPAQPLGPRAQLLLKATPEDNGRSFSCSATLEVAGQLIHKNQTRELRVLYGPRLDERDCPGNWTWPENSQQTPMCQAWGNPLPELKCLKDGTFPLPIGESVTVTRDLEGTYLCRARSTQGEVTRKVTVNVLSPRYE
notes: also called ICAM-1/Ig fusion protein
B7: ICAM-1 domain 1 peptide DGQST, residues 70-74 (peptide)
peptide: DGQST
notes: also called ICAM-1 70-74
B8: ICAM-R/IgG chimera with domain 3 deleted (Fc fusion)
chain: QEFLLRVEPQNPVLSAGGSLFVNCSTDCPSSEKIALETSLSKELVASGMGWAAFNLSNVTGNSRILCSVYCNGSQITGSSNITVYGLPERVELAPLPPWQPVGQNFTLRCQVEGGSPRTSLTVVLLRWEEELSRQPAVEEPAEVTATVLASRDDHGAPFSCRTELDMQPQGLGLFVNTSAPRQLRTFLGPIVNLSEPTAHEGSTVTVSCMAGARVQVTLDGVPAAAPGQTAQLQLNATESDDGRSFFCSATLEVDGEFLHRNSSVQLRVLYGPKIDRATCPQHLKWKDKTRHVLQCQARGNPYPELRCLKEGSSREVPVGIPFFVNVTHNGTYQCQASSSRGKYTLVVVMDIEAFSSH
notes: also called domain 3 deletion chimera; not shown: human IgG1 hinge, CH2 and CH3

Assays:
[1] = molecular target: CD18-independent counter-receptor for ICAM-R on Jurkat cells; experiment: Jurkat cell adhesion to plate-bound shICAM-R, peptide 1-2 mg/ml
[2] = molecular target: T1, VLA-4 (alpha4/beta1) on cells (UniProt P13612 34-1032; P05556 21-798, limits assumed); experiment: adhesion of transfected COS cells to immobilized chimera (20 ug/ml coat)
T1 construct: whole, on cells; On Jurkat cells, T cells and COS cells transfected with alpha4 and beta1 cDNAs; also called α4/β1; α4β1

[3] = molecular target: T2, LFA-1 (CD11a/CD18) on cells (human, UniProt P20701 26-1170; P05107 23-769); experiment: JY cell adhesion to plate-bound chimera
T2 construct: whole, on cells; On SKW3, JY, HL-60 cells, neutrophils and transfected CHO and COS cells; also called CD18/CD11a
T2 sequence (P20701 26-1170, chain 1 of 2): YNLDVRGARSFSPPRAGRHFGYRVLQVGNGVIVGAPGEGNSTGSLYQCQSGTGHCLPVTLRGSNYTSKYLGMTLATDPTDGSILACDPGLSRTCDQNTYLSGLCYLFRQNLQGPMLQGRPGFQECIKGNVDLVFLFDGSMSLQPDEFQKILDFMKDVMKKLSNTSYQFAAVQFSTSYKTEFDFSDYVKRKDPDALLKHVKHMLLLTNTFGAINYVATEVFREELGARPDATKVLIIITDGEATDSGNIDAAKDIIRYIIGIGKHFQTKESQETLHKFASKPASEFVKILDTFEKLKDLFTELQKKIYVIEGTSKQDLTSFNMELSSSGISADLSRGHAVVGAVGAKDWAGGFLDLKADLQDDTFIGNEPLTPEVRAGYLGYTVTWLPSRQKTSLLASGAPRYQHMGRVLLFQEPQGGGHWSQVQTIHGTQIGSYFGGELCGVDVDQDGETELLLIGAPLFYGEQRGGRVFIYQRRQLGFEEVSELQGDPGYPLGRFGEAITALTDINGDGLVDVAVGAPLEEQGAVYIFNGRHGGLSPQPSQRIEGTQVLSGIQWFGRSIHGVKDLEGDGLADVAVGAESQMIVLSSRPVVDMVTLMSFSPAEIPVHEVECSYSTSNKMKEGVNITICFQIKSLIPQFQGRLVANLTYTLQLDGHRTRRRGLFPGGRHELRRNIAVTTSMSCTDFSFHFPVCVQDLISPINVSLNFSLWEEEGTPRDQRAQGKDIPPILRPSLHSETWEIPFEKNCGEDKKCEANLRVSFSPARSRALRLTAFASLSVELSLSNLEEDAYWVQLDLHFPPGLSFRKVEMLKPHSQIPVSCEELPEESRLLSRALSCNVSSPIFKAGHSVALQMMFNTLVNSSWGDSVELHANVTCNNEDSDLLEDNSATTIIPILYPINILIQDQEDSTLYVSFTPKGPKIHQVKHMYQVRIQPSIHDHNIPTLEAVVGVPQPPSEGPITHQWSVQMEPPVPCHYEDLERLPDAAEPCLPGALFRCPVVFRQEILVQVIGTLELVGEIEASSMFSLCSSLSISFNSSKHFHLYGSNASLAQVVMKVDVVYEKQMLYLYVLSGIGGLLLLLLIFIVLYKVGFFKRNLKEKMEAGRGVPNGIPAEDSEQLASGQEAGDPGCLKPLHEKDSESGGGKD
T2 sequence (P05107 23-769, chain 2 of 2): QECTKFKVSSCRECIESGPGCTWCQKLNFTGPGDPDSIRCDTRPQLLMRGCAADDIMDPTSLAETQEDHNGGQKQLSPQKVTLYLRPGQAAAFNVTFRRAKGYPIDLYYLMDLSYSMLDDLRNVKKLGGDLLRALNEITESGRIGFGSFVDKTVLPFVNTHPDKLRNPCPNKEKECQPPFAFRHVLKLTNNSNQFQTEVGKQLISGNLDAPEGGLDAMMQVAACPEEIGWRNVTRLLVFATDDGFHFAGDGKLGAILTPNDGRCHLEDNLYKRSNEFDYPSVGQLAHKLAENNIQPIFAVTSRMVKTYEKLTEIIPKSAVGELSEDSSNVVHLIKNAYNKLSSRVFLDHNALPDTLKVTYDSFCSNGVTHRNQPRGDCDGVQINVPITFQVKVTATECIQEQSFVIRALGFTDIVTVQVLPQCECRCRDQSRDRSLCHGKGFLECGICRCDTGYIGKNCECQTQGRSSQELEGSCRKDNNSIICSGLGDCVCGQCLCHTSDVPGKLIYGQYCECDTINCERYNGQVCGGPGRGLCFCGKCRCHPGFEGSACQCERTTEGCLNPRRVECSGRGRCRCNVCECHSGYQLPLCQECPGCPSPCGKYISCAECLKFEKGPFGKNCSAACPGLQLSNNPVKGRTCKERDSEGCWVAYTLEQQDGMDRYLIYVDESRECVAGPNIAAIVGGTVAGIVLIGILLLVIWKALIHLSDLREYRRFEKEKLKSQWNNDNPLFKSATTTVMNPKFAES

Binder | % Inhibition of cell binding to shICAM-R [1] | further results
B1 | 10% | 
B2 | 36% | 
B3 | 22% | 
B4 | 11% | 
B5 | 17% | 
B6 |  | binding result [2]: no binding
B7 | 9% | 
B8 |  | binding result [3]: binds

Source: patent publication US20040248211A1 (published 2004)
